# T1: human CEACAM5, recombinant (R&D Systems #4128-CM-050) (human, UniProt P06731 35-685)
# T1 construct: Bought; coated in ELISA and used as monomeric analyte in Octet; also called hCEACAM-5; Human CEACAM5-His; not shown: His tag
# T1 sequence (looked up): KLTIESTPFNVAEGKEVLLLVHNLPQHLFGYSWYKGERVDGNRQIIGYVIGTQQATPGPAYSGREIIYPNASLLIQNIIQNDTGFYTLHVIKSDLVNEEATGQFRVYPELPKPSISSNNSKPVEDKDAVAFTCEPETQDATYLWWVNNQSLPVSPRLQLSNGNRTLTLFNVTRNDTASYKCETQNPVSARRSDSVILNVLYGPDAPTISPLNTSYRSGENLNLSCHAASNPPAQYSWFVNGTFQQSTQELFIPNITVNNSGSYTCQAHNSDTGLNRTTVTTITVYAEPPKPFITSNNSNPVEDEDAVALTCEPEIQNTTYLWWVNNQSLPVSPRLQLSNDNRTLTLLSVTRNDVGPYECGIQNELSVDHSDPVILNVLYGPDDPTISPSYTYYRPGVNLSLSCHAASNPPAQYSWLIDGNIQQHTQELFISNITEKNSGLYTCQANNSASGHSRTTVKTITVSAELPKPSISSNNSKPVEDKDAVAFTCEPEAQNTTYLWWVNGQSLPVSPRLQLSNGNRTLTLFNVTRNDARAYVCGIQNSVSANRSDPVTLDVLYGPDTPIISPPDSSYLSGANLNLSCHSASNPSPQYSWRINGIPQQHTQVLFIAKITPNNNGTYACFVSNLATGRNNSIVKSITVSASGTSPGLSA
# T2: CEACAM-8, recombinant (R&D Systems #9639-CM-050) (UniProt P31997 35-320)
# T2 sequence (looked up): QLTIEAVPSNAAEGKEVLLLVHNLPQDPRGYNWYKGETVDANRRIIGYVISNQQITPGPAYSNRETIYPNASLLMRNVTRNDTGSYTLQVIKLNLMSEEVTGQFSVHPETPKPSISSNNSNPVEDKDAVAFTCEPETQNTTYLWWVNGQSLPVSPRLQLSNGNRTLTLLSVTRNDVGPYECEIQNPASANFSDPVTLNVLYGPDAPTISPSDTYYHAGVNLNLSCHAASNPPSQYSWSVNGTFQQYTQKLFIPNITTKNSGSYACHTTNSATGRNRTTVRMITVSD
# T3: human CEACAM6, recombinant (R&D Systems #3934-CM-050) (human, UniProt P40199 35-320)
# T3 construct: also called hCEACAM-6
# T3 sequence (looked up): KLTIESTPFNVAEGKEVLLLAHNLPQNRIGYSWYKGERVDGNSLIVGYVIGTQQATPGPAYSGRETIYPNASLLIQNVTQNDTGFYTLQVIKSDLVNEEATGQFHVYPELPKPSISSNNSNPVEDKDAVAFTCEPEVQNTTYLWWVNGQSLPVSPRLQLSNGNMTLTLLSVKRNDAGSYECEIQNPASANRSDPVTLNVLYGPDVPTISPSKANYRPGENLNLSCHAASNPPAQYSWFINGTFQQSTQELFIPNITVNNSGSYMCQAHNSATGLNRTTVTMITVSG
# T4: biotinylated human CEACAM5-His (Acro Biosystems #CE5-H82E0) (human, UniProt P06731 35-685, biotinylated (site not stated))
# T4 construct: also called CEACAM5-biotin; captured human CEACAM5-biotin; not shown: His tag
# T4 sequence (looked up): T1 sequence (looked up)
# T5: human CEACAM5 expressed on cells (CHO-CEACAM5 transfectants; MKN45 and LS174T tumour cells) (human, UniProt P06731 35-685)
# T5 construct: whole, on cells; also called CEACAM5 on cells; hCEA
# T5 sequence (looked up): T1 sequence (looked up)
# T6: human CEACAM1 expressed on CHO cells (human, UniProt P13688 35-526)
# T6 construct: whole, on cells; also called CHO-CEACAM1; CEACAM1 on cells
# T6 sequence (looked up): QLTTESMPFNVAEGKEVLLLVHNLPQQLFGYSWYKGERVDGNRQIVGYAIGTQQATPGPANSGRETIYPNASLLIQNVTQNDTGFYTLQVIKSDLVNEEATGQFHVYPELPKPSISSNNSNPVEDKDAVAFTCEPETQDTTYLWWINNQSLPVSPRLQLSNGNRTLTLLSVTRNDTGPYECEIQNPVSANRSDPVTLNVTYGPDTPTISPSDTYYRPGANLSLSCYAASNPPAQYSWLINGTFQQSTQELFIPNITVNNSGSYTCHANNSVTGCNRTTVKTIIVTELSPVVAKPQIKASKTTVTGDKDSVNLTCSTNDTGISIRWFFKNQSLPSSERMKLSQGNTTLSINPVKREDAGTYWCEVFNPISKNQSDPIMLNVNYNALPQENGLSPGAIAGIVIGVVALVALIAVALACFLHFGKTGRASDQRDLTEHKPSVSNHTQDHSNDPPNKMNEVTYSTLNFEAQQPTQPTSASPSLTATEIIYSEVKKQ
# B1: Multi41 (bispecific antibody)
# heavy 1: not shown
# light: DIQMTQSPSSLSASVGDRVTITCRASQSISSYLNWYQEKPGKAPKLLIYAASSLQSGVPSRFSGSGSGTDFTLTISSLQPEDFATYYCQQWRSHLFTFGQGTKLEIKRTVAAPSVFIFPPSDEQLKSGTASVVCYLNNFYPREAKVQWKVDNALQSGNSQESVTEQDSKDSTYSLWSTLTLSKADYEKHKVYACEVTHQGLSSPVTKSFNRGEC
# heavy 2: EVQLLESGGGLVQPGGSLRLSCAASGFTFSTYGMHWVREAPGKGLEWLSYISGGSSYIFYADSVKGRFTISRDNSKNTLYLQMNSLRAEDTAVYYCARILRGGSGMDLWGQGTLVTVSSASTKGPSVFPLAPSSKSTSGGTAALGCLVKDYFPEPVTVSWNSGALTSGVHTFPAVLQSSGLYSLTSVVEVPSSSLGTQTYICNVNHKPSNTKVDKKVEPKSC
# notes: Optimised RUBY format, CEACAM5xCD40; copies: 2 + 2 + 2
# Tests used:
# [1] = target: T1, human CEACAM5, recombinant (R&D Systems …); assay: dual-target ELISA: hCEACAM-5 coated, bsAb titrated, detected with biotinylated hCD40-muIg and streptavidin-HRP, luminescence; signal needs both targets bound
# [2] = target: T1, human CEACAM5, recombinant (R&D Systems …); assay: ELISA, antigen coated at 0.5 µg/mL, bsAb titrated, anti-human kappa-HRP, luminescence
# [3] = target: T2, CEACAM-8, recombinant (R&D Systems …); assay: as above
# [4] = target: T3, human CEACAM6, recombinant (R&D Systems …); assay: as above
# [5] = target: T4, biotinylated human CEACAM5-His (Acro …); assay: Octet BLI, captured CEACAM5-biotin, bsAb in solution, 1:1 fit
# Method: Kinetic measurements were performed in the Octet RED96 platform using several different setups. […] Monomeric human CD40-His-Avi tag (Acro Biosystems #CD0-H5228), monomeric Human CEACAM5-His (R&D Systems #4128-CM-050) or monomeric Cynomolgus CEACAM5-His (Sino Biological #90891-C08H) were ½ serially diluted in 1× kinetic buffer (Sartorius) starting at 500 nM or 100 nM. […] Binding kinetics was studied in 1× kinetic buffer where association was allowed for 100 sec, 300 sec or 600 sec followed by dissociation for 100 sec, 300 sec or 3600 sec. Sensor tips were regenerated with 10 mM Glycine pH 1.7. Data generated were referenced by subtracting blank or parallel buffer blank, the baseline was aligned to the y-axis, inter-step correction by alignment against dissociation was performed and the data was smoothed by Savitzky-Golay filter in the data analysis software (v9.0.0.14). The processed data was fitted using a 1:1 Langmuir binding model with R² or X² as a measurement of fitting accuracy.
# Association was measured for 100 sec and dissociation measured for 100 sec.
# [6] = target: T5, human CEACAM5 expressed on cells …; assay: flow cytometry on CHO-CEACAM5 cells, fluorochrome-conjugated anti-human IgG, MFI
# Excerpt: (§1) The human CEACAM5 and CEACAM1 genes were cloned into pcDNA3.1, and the vector was subsequently stably transfected into CHO cells. […] Binding of the antibodies was detected using fluorochrome-conjugated anti-human IgG and analyzed using flow cytometry.
# [7] = target: human CD40 expressed on cells (CD40 reporter cells, HEK Blue CD40L cells, primary B cells, tumour APCs) (human, UniProt P25942 21-277); assay: cell-based or functional assay
# Sequence of human CD40 expressed on cells (CD40 reporter cells, HEK Blue CD40L cells, primary B cells, tumour APCs) (P25942 21-277): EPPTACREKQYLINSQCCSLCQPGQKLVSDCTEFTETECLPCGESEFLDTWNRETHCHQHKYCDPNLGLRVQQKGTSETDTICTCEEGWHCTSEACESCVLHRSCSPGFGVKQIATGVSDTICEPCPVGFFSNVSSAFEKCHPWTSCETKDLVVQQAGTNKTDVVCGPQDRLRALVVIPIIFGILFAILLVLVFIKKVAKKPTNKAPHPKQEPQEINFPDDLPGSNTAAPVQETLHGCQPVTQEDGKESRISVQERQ
# [8] = target: T6, human CEACAM1 expressed on CHO cells; assay: flow cytometry on CHO-CEACAM1 cells, fluorochrome-conjugated anti-human IgG, MFI
# Excerpt: as §1
binder,measurement,setting,value
B1,EC50 (read off the curve),[1],~600 pM
same,EC50 (read off the curve),[2],~500 pM
same,binding result,[3],no binding (tested: 100 nM)
same,binding result,[4],no binding (tested: 100 nM)
same,Kd,[5],< 1 pM
same,koff,[5],< 1e-07 s⁻¹
same,kon,[5],47000 M⁻¹ s⁻¹
same,EC50 (read off the curve),[6],~3000 pM
same,"EC50 of SEAP release, HEK Blue CD40L reporter cells, bsAb crosslinked to CHO-CEACAM5 cells, 0 Raji sink cells/well",[7],30 pM
same,"EC50 of SEAP release, same assay, 10 000 Raji sink cells/well",[7],60 pM
same,"EC50 of SEAP release, same assay, 30 000 Raji sink cells/well",[7],130 pM
same,"EC50 of SEAP release, same assay, 90 000 Raji sink cells/well",[7],360 pM
same,binding result,[8],no binding (tested: about 400 nM)

# — patent US20260146107A1 (ALLIGATOR BIOSCIENCE, published 2026)
